Values joined by “and” are separate entries in the source; they are usually repeats but may differ in a detail not shown here. Equal values may be shown once.
B1: TolAIII (TolA domain III, residues 296-421), wild type (domain or fragment, E. coli, UniProt P19934 296-421, looked up)
chain: DIFGELSSGKNAPKTGGGAKGNNASPAGSGNTKNNGASGADINNYAGQIKSAIESKFYDASSYAGKTCTLRIKLAPDGMLLDIKPEGGDPALCQAALAAAKLAKIPKPPSQAVYEVFKNAPLDFKP
notes: TolA, E. coli, 421-residue protein; C-terminal domain III, residues 296-421, soluble truncate lacking TolAI-II; also called TolA_(III296–421); WT TolAIII
B2: Colicin N translocation domain, ColN-T (ColN 1-90) (domain or fragment)
chain: MGSNGADNAHNNAFGGGKNPGIGNTSGAGSNGSASSNRGNSNGWSWSNKPHKNDGFHSDGSYHITFHGDNNSKPKPGGNSGNRGNNGDGA
notes: Colicin N, disordered N-terminal translocation (T) domain, residues 1-90; also called ColN-T_(1–90); T_(1–90)
B3: G3p-N1, N-terminal (N1) domain of gene-3-protein of filamentous bacteriophage M13 (domain or fragment, UniProt P69168 19-104, looked up)
chain: AETVESCLAKPHTENSFTNVWKDDKTLDRYANYEGCLWNATGVVVCTGDETQCYGTWVPIGLAIPENEGGGSEGGGSEGGGSEGGG
notes: Gene-3-protein (G3p, minor coat protein), filamentous bacteriophage M13, N1 domain; also called G3p-sN1

Tests used:
Details in all cases: both partners purified
[1] = biological target: T1, TolB DGSY-AGAA (UniProt P0A855 22-430, DGSY-AGAA); assay: SPR; TolAIII (645 RU) amine-coupled to CM5; WT TolB or TolB mutants passed over (5 µM in Fig. 4e); 1:1 Langmuir fits and steady-state affinity; HEPES-EP, 25 °C
T1 construct: TolB with DGSY (109-112) changed to AGAA

[2] = biological target: T2, TolB, wild type (UniProt P0A855 22-430); assay: as above
T2 construct: TolB, 47 kDa two-domain soluble periplasmic protein; also called WT TolB

[3] = biological target: B1; assay: SPR; TolAIII WT, D418P or K420P amine-coupled to a CM5 chip (~550 RU; 155 RU TolAIII for ColN-T kinetics); concentration series of analyte (ColN-T, G3p-N1 0.2-50 µM; G3p-N1 V44P up to 250 µM); Biacore X-100, 25 °C, HEPES-EP (10 mM HEPES pH 7.4, 150 mM NaCl, 3.4 mM EDTA, 0.05 % P20); blank surface subtracted; kinetic fits and steady-state affinity

B1
Kd [1]: 39 µM and 48.3 µM | koff [1]: 0.1 ± 0.002 s⁻¹ | kon [1]: 2710 M⁻¹ s⁻¹ | Kd [2]: 37 µM and 43.2 µM | koff [2]: 0.3 ± 0.004 s⁻¹ | kon [2]: 8270 M⁻¹ s⁻¹

B2
Kd [3]: 1.8 ± 0.2 µM

B3
Kd [3]: 15 µM and 11.9 µM | koff [3]: 0.31 ± 0.002 s⁻¹ | kon [3]: 20600 M⁻¹ s⁻¹

— article PMC4339652, “Antibacterial toxin colicin N and phage protein G3p compete with TolB for a binding site on TolA” (Microbiology, 2015)
